Assay: soluble on expression in E. coli; label from the status in PepcDB or PDB records

Which “soluble on expression in E. coli” value does the source give for “MSLTRFSVSPGDPMKKFVTLALTLSTLGASVASAQAVRVGMAYDAGGKADKSFNQSAYEGSQLAAKKLGIQVKDFEPSDPSQIIQGVRSFAKEGFDLTIGVGFSNNASITQVAKENPDLYFGLVDDVSTAKNVASLVFNEEQGSYLVGYLAAMNSSTGVVGFIGGMNIPLIHKFEAGYRAGVKAANPKATIISQYVGNTPEAWNNPGKAKEIAANMRGRGADIIFAAAGGSGNGLIDYIKQTPCLNASQLPKGVTFKSDNFKNVKKSAAYAKACTGNTRPMFFIGVDSNQNYLGDFDKNPATLNHGLTSMVKRVDNAVYALINEVKNDKFKAGERRFGLKDGGVAYAVDQYNKALLPAAQIAKVEAVKQQIIKGQIKVPTKEGGSHHHHHH” here?
Its value is “soluble”.

Which “soluble on expression in E. coli” value does the source give for “MSLQCDDCKTKLMPLVAHEVDHIDNRRDVAGDLDDSPDNLRAVNRDCHRRITMRQIAEAGAVGTMAPVWMPITQKPLTVVVGPPSAGKSTWVKAAAKASDLVIDLDILAPTVIGKPMWIADSRERSLVIRERNSLVAEYMRGKTAHPHCFLIDTAGSFKRRKFWLDRGADVVLLDTDKDICRARIRQCSARPESTRAGRLAAVDRWEEGHHHHHH” here?
The value was “not soluble”.

For “MAKIVLVLYDAGKHAADEEKLYGCTENKLGIANWLKDQGHELITTSDEEGGNSVLDQHIPDADIIITTPFHPAYITKERIDKAKKLKLVVVAGVGSDHIDLDYINQTGKKISVLEVTGSNVVSVAEHVVMTMLVLVRNFVPAHEQIINHDWEVAAIAKDAYDIEGKTIATIGAGRIGYRVLERLVPFNPKELLYYDYQALPKDAEEKVGARRVENIEELVAQADIVTVNAPLHAGTKGLINKELLSKFKKGAWLVNTARGAICVAEDVAAALESGQLRGYGGDVWFPQPAPKDHPWRDMRNKYGAGNAMTPHYSGTTLDAQTRYAQGTKNILESFFTGKFDYRPQDIILLNGEYVTKAYGKHDKK”, which “soluble on expression in E. coli” value is on record?
The value was “soluble”.

Which “soluble on expression in E. coli” value does the source give for “MGSDKIHHHHHHMAKSALRVLEIMEFVATHKAGCATHTEISQALGIPKSSLTALLTDLQRPGYLELDRETGRYAIGSQVMFLAHAYLRNLNIVRLGTPVVHDVFLKLNVYTTMVIPKGDMCLVVCSESLPSPLAHSLSIGQHIPMLHSALGRAILAFLEPEEVERFLHDYTPTPYTDRTKTGIEEVRKALAQVRKAGFAHMQGEYLPGIIGIAVPVFNLENRPIAAIGIGIPAVEGTTEFEKRICKQLLHSADTLSRRLGAKLKPTPSKLLRKGEEE” here?
The value was “not soluble”.

With “MINAVGNPQTLLLLGGTSEIGLAICEEYLKKAPMRVILAALPGDPGRDAAVAQLKAAGANAVDVIDFDAVDTESHPKVIDEAWAKSDVDVAIVAFGLLGDAEELWQNQRKAVQIAEVNYTAAVSVGVLVGEKMKAQGFGQIIAMSSAAGERVRRSNFVYGSTKAGLDGFYLGLGEALREFGPRVLVIRPGQVRTRMSADVKEAPLTVNKEDVAKLAVTSAEKGKDLVWAPGAFRYVMMILRHIPRPIFKKLPI” as the sequence, how does the “soluble on expression in E. coli” value read?
The value was “not soluble”.

Which “soluble on expression in E. coli” value does the source give for “MSFETKPNYLLLTNPDTPLSVCTSPYYSPSGKTASIPSSEASKPEGTNGQWSHLPTGATYVTDEFSSEFQIQNGSTAAQSGNANNYADPLSHRRYFNNVNGYNHHQFYDTASQASVSSPATSVTSSLSPPDSLSNGHTTQRHHIGKAISFCKVCGDKASGYHYGVTSCEGCKGFFRRSIQRKIDYRCLKQQVCEIKRESRNRCQYCRFKKCLDSGMSKDSVRQMKFRNAMRDDKSPDSVFVPEISTLERQEEVDAVYEAVLRAHTTFSFYTDIKIRSIVARPFNVRINEDSKMNRLNAWQIYAHEIDVDIKEVVNFVKEIPKFNFINGNDKAVLLRKNAFPLYLLRIVRGMSNRGLMLRDGRLIDFKSLQLLYGSLADEMLAFANHIITIGCTDGDIALFIVLILCQPLTTEQQFSTNFKSQLQLLEMFDFYKKVLFQKMTCRIDGCDTYKQLMKCIHELNRLNELHKQQLNILRENLSFLNLPPLVVEMFQLSTLPLPVNHNNQENQYTPAPEHQSPQPQQPTPNQQQTPVHC” here?
The value was “not soluble”.

With “MFARIESGKIIAQKRKELGKTQKVLAEETNVNKSIISQIENGKFSGSLRVYEKYINGLGLELAVRPIKSKIPDFDNLHHLFPDE” as the sequence, how does the “soluble on expression in E. coli” value read?
The value was “not soluble”.

For “MATMLSRYFLLTVAALFAQSASAIEVLTSIKPIQMITYELMLGTGTPDVLLPSGASPHDYALRPSDVKRIQQADLVIWFGQDLEPFMSKLLEGRTSALTLSQVPNLALREYGEEEQHEHDGHHHGHYDPHFWLGIGPVGQVASAITAKLIELDADQQQQYQDNLVRFLANLAEQDNTIGEKLKPVTTVPYYVFHDAYGYFEQHFALNNLGHFTVSPERKPGAKTLIAIKKTLNDQLAKCVFSEPQFEPAIIETVVRGTSAKIGVLDPLGISIELQAGSYFAFLNSLAESYYACLSQS”, which “soluble on expression in E. coli” value is on record?
The value was “not soluble”.

With “MFGGSAPKPSIFGGTAATTTASSGFSFGNSSTSTANTGGNTNTTGGFSFGSAQPSTGSTGLFGNSTATGSMFGGSSAAAPAPASAGIFGNSGAAAPAPASTSIFGSSANSAAPATVTFGASAPSAGAGMFGANKPAAPTGGLFGSSTSTATTAPTGGLFGSSTAAPSSGLFGSTAAPAAPGGLFGSTSTSTAAPSGGLFGSSAAPTSTAPAPSGGLFGAAPATSNAAPTSGLFGNSAPAATASSGGLFGAAPKPAAPSGGLFGSTAPATTAATTTATSGLFGAPTSAPSSAPATGGLFGASTAPAAATGGLFSIGAASASTPSVGLFGNSSASTTAAAAPATAPAAASTGGLFGATTAAAAAPTSSTTGGLFGSTAAAPAASLPTGGLFGSSTPAKTPAAPTAGLFGASSTTTTSAPATGSLFGTAPATTTATSAAPAASTGGLFGASSTTTPASTAPTGGLFGAATTTAPAAAAPTGGLFGAATTTAPATVGPTGGLFGAATTTTPATAATLGQTPSTVSATPSLPTTTSTTSTLPKPAEATPTLGLGLGLTSTPLAKGTGWTTSGLKGAATTSAGLKIGASGSDTLSEEEIKAGLGGNDTKAFFTALQEVVNSYHSEIAKQERVFHNKMLELNAYDRELITLEPKVLGLYNEMDDLSGSCKKLHFNVASMTSVLNDIEQNVVELENKLSLPEWHTLDYKFPLDSRFASRHDVQRVQIAQMMLNVDSQMKCADFDLDQITKSLNTMQSTVLKTKTETPLEKTELIMKKQLQKLMDLSTQHDATRDKLNKLKDDHNLKTNNSSKA” as the sequence, how does the “soluble on expression in E. coli” value read?
The value was “not soluble”.

Which “soluble on expression in E. coli” value does the source give for “MGSDKIHHHHHHMGKYQDSKKVVRNYFEALENATGDEVENVLKQHMKSDYNWKGVYPFREQEGTENVADVFWKPLKKSLSNMQRRQDIFIAGTNEIDNSEWVMSMGHFMGLFDNDWLGIKHTRKMISLRYAEFNCVQDGKIAKTGLFVDIIGFMIQAGVNPLPPQTGSYFVYPGPIDHNGLLFEDADEVEGVKTLALVNKMVDDLSELNESGAMGCPPEILEKSWAKDMIWYGPGGIGASYTIPRYQEQHQLPFRNNLKGKTFNGHVCRFAEGNFACFFGWPNLTNVPCGGFLGLPGGEVKADMQVVDVYYRKGDKLQENWVLIDIPYWLKQQGLDILERTKSIFNA” here?
Its value is “not soluble”.

For “VAYWLVKSEPSVWSWDQQVAKGAAGEAWTGVRNHSAKLHMVAMRRGDRAFYYHSNEGKEIVGIAEIIREAYPDPTDASGKFVCVDIKADKPLKTPVTLAAVKAEPRLADMALMKYSRLSVQPVTAEEWKLVCKMGGLLEHHHHHH”, which “soluble on expression in E. coli” value is on record?
Its value is “soluble”.

Which “soluble on expression in E. coli” value does the source give for “GPGSMKQIAHYFRIKTAKHAVLEAGDNIRELCSVLSFPLIIKHVSGYSSVGMDKSCKVYDMDSLHSRVTRFIEQYQIALVEEFVVGDEATILVCADSTQPDGIRVFPPVMVQFPEGEDFKHFHLKWETYEGMEWRLMPEDDPALSQVLSTARTSFMHMMGGVGYGRVDVRIDRSTHDVVFLEINPNCGVMYPPGQEGSADWILRLTPGFNQREFTLLQIKEALRRNERMQPLFRCVYNPAQGYRMCATRDISAGSPIFEAEGQSVRLYTKPHVKATRGKEEYDQFAQKAWPLGGDGHYYALWDNEPTNWRTFSHSCVPNMNFGPNRSLNLYATRDIARGEELTMDYRLFRDETTPPFQCCCGSECCEGWIAMNGGKLTKEENGNNY” here?
Its value is “not soluble”.

With “MKAEIISVGTEILLGDIVNTNSQFLAKELASLGIEVYHQSTVGDNKQRLLECFDESLKRSDFVITTGGLGPTGDDMTKETAAEYFGQKLELHKPSLEVLESFFVKTGKKMAENNMKQVYFPKDAIVLKNNNGTAPGAILKKDGKFIIVLPGPPREMKAMFNESVKPYLQQFTNEMLVSKTLRLYGIGESNLELEILDIINEQTNPTVALYAKELEVTIRITAKAENEREAFKLIKPVEEKIKSRVGKYVYTEGDISISEGETALEDAVSKLLVEKNLTIAVAESCTGGLVSSSLINYPGISSVFLEGCVTYSNDSKMKRLGVKRETLEEFGAVSEQTAIEMAEGVAKGLKANIGISTTGVAGPGGGTKEKPVGLVYTAIYINGKTIVKKNIFNGDRRKIRLRATRDLLNELRIQLEKL” as the sequence, how does the “soluble on expression in E. coli” value read?
The value was “not soluble”.

— the DeepSol protein solubility set
